Reference: paper PMC4132754 (Nucleic Acids Research, 2014)

Columns and labels:
Experiment in all cases: MST
UPF1 ΔStalk = target: T1, UPF1 ΔStalk (human, UniProt Q92900-2 1-1118, del271-433)
T1 sequence: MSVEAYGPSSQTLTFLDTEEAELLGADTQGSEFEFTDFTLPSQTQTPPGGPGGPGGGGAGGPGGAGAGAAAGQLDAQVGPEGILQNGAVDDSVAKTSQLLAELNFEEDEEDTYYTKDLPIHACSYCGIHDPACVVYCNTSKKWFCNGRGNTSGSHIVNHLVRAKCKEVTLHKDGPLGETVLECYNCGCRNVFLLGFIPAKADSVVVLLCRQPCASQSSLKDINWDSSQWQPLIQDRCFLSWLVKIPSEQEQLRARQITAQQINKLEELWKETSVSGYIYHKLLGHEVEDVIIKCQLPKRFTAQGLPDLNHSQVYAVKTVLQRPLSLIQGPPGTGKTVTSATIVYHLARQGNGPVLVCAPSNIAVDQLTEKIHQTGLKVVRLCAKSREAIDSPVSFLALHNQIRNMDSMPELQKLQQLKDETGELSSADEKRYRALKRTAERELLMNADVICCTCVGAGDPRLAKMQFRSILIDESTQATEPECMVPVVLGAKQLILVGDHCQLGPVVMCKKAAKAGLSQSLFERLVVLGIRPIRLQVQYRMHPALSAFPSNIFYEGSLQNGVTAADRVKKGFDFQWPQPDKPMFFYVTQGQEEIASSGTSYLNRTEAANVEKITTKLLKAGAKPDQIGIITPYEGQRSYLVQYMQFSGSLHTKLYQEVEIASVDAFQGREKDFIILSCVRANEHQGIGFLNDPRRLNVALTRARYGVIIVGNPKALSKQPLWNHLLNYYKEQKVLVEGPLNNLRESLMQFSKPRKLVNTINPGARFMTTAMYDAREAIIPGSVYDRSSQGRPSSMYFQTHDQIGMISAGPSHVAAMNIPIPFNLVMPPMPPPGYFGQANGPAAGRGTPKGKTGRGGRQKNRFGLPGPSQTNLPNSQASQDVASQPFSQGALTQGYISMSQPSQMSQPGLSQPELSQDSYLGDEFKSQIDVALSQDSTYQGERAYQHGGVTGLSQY

UPF1 WT = target: T2, UPF1 WT (human, UniProt Q92900-2 1-1118)
T2 sequence: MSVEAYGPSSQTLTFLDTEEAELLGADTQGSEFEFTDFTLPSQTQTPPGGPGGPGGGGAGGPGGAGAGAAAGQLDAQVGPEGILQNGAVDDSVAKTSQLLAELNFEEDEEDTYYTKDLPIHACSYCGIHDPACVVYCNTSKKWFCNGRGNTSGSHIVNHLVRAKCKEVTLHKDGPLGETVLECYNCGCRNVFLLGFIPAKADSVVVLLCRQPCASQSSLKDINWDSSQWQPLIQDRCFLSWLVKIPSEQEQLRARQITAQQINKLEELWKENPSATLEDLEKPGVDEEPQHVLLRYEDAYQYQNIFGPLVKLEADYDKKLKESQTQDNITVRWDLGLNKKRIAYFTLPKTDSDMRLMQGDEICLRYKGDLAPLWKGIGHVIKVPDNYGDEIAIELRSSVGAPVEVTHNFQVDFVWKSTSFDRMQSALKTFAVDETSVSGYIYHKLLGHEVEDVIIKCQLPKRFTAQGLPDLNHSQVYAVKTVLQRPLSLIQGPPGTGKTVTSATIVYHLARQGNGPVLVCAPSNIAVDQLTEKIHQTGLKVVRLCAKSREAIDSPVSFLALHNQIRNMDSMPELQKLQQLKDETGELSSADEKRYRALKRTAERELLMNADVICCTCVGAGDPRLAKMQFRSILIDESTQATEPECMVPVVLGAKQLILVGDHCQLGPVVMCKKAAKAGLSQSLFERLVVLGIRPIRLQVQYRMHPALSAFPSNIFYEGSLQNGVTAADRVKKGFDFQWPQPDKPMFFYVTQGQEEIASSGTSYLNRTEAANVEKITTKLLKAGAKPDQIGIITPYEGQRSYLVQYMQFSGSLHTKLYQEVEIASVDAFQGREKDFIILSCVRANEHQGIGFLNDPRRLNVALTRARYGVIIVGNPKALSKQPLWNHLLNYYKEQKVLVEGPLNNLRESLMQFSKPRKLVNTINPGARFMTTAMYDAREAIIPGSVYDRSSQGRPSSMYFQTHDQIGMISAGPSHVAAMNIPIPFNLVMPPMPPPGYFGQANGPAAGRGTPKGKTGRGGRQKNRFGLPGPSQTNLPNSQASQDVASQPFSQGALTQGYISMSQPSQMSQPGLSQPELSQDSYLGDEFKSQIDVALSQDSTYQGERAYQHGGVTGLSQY

SMG6 = SMG6 (human, UniProt Q86US8 1-1419)
UPF1 Δ1C = target: T3, UPF1 Δ1C (human, UniProt Q92900-2 1-1118, del561-608)
T3 sequence: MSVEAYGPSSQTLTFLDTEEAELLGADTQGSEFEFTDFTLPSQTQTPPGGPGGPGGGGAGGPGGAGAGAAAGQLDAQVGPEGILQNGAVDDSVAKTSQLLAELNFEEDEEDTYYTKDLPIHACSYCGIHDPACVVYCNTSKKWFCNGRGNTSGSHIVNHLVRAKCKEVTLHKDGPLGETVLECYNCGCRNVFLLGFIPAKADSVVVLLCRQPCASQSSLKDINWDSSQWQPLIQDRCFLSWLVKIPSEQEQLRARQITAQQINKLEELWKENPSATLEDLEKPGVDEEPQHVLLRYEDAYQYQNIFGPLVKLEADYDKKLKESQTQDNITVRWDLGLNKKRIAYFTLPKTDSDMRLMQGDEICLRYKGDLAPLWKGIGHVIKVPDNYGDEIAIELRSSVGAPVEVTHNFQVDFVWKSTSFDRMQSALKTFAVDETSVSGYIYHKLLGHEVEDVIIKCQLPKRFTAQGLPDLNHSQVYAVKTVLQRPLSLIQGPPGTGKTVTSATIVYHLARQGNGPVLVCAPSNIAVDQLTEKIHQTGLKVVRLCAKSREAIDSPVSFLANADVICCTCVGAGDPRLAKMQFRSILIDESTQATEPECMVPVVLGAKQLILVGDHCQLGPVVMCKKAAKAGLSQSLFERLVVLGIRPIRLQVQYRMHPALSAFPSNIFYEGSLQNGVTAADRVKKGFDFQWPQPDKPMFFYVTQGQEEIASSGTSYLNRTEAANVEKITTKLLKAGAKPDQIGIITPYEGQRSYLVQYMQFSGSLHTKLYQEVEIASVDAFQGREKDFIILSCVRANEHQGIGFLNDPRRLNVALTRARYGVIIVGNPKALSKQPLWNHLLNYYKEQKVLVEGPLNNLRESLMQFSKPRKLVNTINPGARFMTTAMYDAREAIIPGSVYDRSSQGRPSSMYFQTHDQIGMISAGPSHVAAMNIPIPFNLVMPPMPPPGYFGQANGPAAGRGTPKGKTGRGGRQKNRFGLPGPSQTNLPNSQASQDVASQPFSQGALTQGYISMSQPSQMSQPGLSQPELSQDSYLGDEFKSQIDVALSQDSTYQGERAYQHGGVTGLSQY

Sequence of SMG6 (Q86US8 whole entry): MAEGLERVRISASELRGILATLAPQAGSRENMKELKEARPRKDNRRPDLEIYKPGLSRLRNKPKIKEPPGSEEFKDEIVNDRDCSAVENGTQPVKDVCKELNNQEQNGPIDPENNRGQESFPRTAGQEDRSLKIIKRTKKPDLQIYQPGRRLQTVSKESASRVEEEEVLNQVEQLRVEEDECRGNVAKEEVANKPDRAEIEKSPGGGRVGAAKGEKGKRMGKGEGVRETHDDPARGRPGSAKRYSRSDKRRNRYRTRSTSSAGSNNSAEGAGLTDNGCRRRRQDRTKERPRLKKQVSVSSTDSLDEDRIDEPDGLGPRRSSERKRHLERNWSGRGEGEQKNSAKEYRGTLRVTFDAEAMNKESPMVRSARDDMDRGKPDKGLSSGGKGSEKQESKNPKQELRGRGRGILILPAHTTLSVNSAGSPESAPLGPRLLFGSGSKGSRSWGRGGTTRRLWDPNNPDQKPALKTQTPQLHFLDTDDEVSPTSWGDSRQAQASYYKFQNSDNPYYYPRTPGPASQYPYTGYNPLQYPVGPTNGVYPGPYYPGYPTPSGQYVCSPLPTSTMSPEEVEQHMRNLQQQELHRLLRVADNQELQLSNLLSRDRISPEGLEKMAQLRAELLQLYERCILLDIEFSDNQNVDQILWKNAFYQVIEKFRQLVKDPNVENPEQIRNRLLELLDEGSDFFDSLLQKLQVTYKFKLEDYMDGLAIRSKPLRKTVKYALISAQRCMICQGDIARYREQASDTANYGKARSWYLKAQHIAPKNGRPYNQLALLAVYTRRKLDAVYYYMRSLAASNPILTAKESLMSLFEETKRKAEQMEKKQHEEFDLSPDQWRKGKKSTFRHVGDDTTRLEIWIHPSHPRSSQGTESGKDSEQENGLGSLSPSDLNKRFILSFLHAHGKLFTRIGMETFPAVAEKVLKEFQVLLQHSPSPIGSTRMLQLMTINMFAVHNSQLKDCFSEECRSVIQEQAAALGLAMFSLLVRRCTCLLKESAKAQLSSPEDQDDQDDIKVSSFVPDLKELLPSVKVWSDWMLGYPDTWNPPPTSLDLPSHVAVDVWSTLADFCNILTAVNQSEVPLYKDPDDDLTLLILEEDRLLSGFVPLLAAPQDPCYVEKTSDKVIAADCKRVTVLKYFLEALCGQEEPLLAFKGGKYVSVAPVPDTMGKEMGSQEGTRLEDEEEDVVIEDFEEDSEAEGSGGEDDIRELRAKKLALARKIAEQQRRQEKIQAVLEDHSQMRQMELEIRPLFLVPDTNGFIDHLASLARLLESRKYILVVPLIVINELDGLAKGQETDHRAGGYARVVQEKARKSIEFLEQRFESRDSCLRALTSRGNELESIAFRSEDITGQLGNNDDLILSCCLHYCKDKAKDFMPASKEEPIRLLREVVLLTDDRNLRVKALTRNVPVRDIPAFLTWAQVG

Binder: UUUUUUUUUUUUUUUUUUUUUUUUUUUUUU (ssRNA) [U30 RNA]
- Kd (UPF1 ΔStalk): 6.51 nM
- Kd (UPF1 WT): 1.48 nM
- binding result (SMG6): no binding
- binding signal (UPF1 Δ1C): 32.2 fold lower affinity than WT
